Laboratory results taken from the supplement of paper PMC10567573.

B1: KCNA1 (parent)
chain: LKASMRELGLLIFFLFIGVILFSS

Variants of: B1
Assay: protein stability index of a GFP-peptide fusion (GPS, HEK-293T) (PSI 1-6); higher = more stable
Conditions: c terminus: a fixed tail appended
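Note: lentivirally expressed fusions sorted by FACS into six bins by GFP to DsRed ratio, PSI derived from sequencing read proportions per bin multiplied by bin number.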

Row | Variant | protein stability index
1 | LKAMMRELGLLIFFLFIGVILFSS | 1.97
2 | LKAVMRELGLLIFFLFIGVILFSS | 2.65
3 | LKAGMRELGLLIFFLFIGVILFSS | 1.91
4 | LKAEMRELGLLIFFLFIGVILFSS | 3.02
5 | LKAPMRELGLLIFFLFIGVILFSS | 3.03
6 | LKAQMRELGLLIFFLFIGVILFSS | 2.55
7 | LKACMRELGLLIFFLFIGVILFSS | 2.87
8 | LKAYMRELGLLIFFLFIGVILFSS | 2.17
9 | LKAAMRELGLLIFFLFIGVILFSS | 3.21
10 | LKAIMRELGLLIFFLFIGVILFSS | 1.69
11 | LKAFMRELGLLIFFLFIGVILFSS | 2.15
12 | LKAHMRELGLLIFFLFIGVILFSS | 2.07
13 | LKALMRELGLLIFFLFIGVILFSS | 4.39
14 | LKAWMRELGLLIFFLFIGVILFSS | 1.55
15 | LKANMRELGLLIFFLFIGVILFSS | 2.31
16 | LKATMRELGLLIFFLFIGVILFSS | 2.46
17 | LKAKMRELGLLIFFLFIGVILFSS | 1.62
18 | LKARMRELGLLIFFLFIGVILFSS | 2.09
19 | LKADMRELGLLIFFLFIGVILFSS | 3.58
20 | LKGSMRELGLLIFFLFIGVILFSS | 1.65
21 | LKWSMRELGLLIFFLFIGVILFSS | 2.14
22 | LKISMRELGLLIFFLFIGVILFSS | 1.53
23 | LKSSMRELGLLIFFLFIGVILFSS | 2.37
24 | LKVSMRELGLLIFFLFIGVILFSS | 1.67

Row | Variant | protein stability index
25 | LKMSMRELGLLIFFLFIGVILFSS | 1.58
26 | LKCSMRELGLLIFFLFIGVILFSS | 1.92
27 | LKNSMRELGLLIFFLFIGVILFSS | 1.86
28 | LKKSMRELGLLIFFLFIGVILFSS | 2.16
29 | LKLSMRELGLLIFFLFIGVILFSS | 1.77
30 | LKHSMRELGLLIFFLFIGVILFSS | 2.89
31 | LKRSMRELGLLIFFLFIGVILFSS | 1.74
32 | LKESMRELGLLIFFLFIGVILFSS | 1.78
33 | LKPSMRELGLLIFFLFIGVILFSS | 2.17
34 | LKFSMRELGLLIFFLFIGVILFSS | 1.72
35 | LKTSMRELGLLIFFLFIGVILFSS | 2.12
36 | LKQSMRELGLLIFFLFIGVILFSS | 2.12
37 | LKYSMRELGLLIFFLFIGVILFSS | 2.06
38 | LKDSMRELGLLIFFLFIGVILFSS | 2.46
39 | LKASMRYLGLLIFFLFIGVILFSS | 1.74
40 | LKASMRLLGLLIFFLFIGVILFSS | 2.16
41 | LKASMRFLGLLIFFLFIGVILFSS | 1.84
42 | LKASMRMLGLLIFFLFIGVILFSS | 1.95
43 | LKASMRVLGLLIFFLFIGVILFSS | 1.99
44 | LKASMRGLGLLIFFLFIGVILFSS | 2.13
45 | LKASMRPLGLLIFFLFIGVILFSS | 2.28
46 | LKASMRCLGLLIFFLFIGVILFSS | 1.65
47 | LKASMRDLGLLIFFLFIGVILFSS | 2.72
48 | LKASMRHLGLLIFFLFIGVILFSS | 2.29

Row | Variant | protein stability index
49 | LKASMRSLGLLIFFLFIGVILFSS | 1.88
50 | LKASMRKLGLLIFFLFIGVILFSS | 2.21
51 | LKASMRWLGLLIFFLFIGVILFSS | 1.42
52 | LKASMRILGLLIFFLFIGVILFSS | 2.77
53 | LKASMRTLGLLIFFLFIGVILFSS | 2.01
54 | LKASMRRLGLLIFFLFIGVILFSS | 2.07
55 | LKASMRALGLLIFFLFIGVILFSS | 2.13
56 | LKASMRQLGLLIFFLFIGVILFSS | 1.68
57 | LKASMRNLGLLIFFLFIGVILFSS | 1.55
58 | LNASMRELGLLIFFLFIGVILFSS | 2.18
59 | LPASMRELGLLIFFLFIGVILFSS | 2.02
60 | LYASMRELGLLIFFLFIGVILFSS | 2.35
61 | LTASMRELGLLIFFLFIGVILFSS | 2.01
62 | LMASMRELGLLIFFLFIGVILFSS | 2.15
63 | LLASMRELGLLIFFLFIGVILFSS | 1.81
64 | LSASMRELGLLIFFLFIGVILFSS | 2.19
65 | LVASMRELGLLIFFLFIGVILFSS | 3.35
66 | LIASMRELGLLIFFLFIGVILFSS | 2.79
67 | LAASMRELGLLIFFLFIGVILFSS | 3.41
68 | LFASMRELGLLIFFLFIGVILFSS | 2
69 | LEASMRELGLLIFFLFIGVILFSS | 3.11
70 | LHASMRELGLLIFFLFIGVILFSS | 2.54
71 | LCASMRELGLLIFFLFIGVILFSS | 1.28
72 | LDASMRELGLLIFFLFIGVILFSS | 2.89

Row | Variant | protein stability index
73 | LWASMRELGLLIFFLFIGVILFSS | 2.4
74 | LRASMRELGLLIFFLFIGVILFSS | 2.32
75 | LQASMRELGLLIFFLFIGVILFSS | 3.04
76 | LGASMRELGLLIFFLFIGVILFSS | 2.49
77 | LKASMWELGLLIFFLFIGVILFSS | 2.35
78 | LKASMIELGLLIFFLFIGVILFSS | 3.16
79 | LKASMNELGLLIFFLFIGVILFSS | 2.85
80 | LKASMDELGLLIFFLFIGVILFSS | 3.02
81 | LKASMHELGLLIFFLFIGVILFSS | 3.36
82 | LKASMLELGLLIFFLFIGVILFSS | 3.12
83 | LKASMVELGLLIFFLFIGVILFSS | 2.45
84 | LKASMYELGLLIFFLFIGVILFSS | 3.07
85 | LKASMGELGLLIFFLFIGVILFSS | 2.63
86 | LKASMQELGLLIFFLFIGVILFSS | 2.28
87 | LKASMAELGLLIFFLFIGVILFSS | 3.59
88 | LKASMTELGLLIFFLFIGVILFSS | 3.38
89 | LKASMMELGLLIFFLFIGVILFSS | 3.15
90 | LKASMKELGLLIFFLFIGVILFSS | 1.61
91 | LKASMCELGLLIFFLFIGVILFSS | 3.31
92 | LKASMPELGLLIFFLFIGVILFSS | 2.36
93 | LKASMSELGLLIFFLFIGVILFSS | 2.88
94 | DKASMRELGLLIFFLFIGVILFSS | 3.09
